± gives the uncertainty stated by the source.
Experiment: self-splicing fitness, log relative to wild type (ln ratio); higher = more splicing; Tetrahymena group I intron in knt gene, E. coli kanamycin selection, DiMSum; sequences stand for … in CUCUCU…GGAGGGAAAAGUUAUCAGGCAUGCACCUGGUAGCUAGUCUUUAAACCAAUAGAUUGCAUCGGUUUAAAAGGCAAGACCGUCAAAUUGCGGGAAAGGGGUCAACAGCCGUUCAGUACCAAGUCUCAGGGGAAACUUUGAGAUGGCCUUGCAAAGGGUAUGGUAAUAAGCUGACGGACAUGGUCCUAACCACGCAGCCAAGUCCUAAGUCAACAGAUCUUCUGUUGAUAUGGAUGCAGUUCACAGACUAAAUGUCGGUCGGGGAAGAUGUAUUCUUCUCAUAAGAUAUAGUCGGACCUCUCCUUAAUGGGAGCUAGCGGAUGAAGUGAUGCAACACUGGAGCCGCUGGGAACUAAUUUGUAUGCGAAAGUAUAUUGAUUAGUUUUGGAGUACUCGUGGUCG
Outline: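 The eight P1ex-region nucleotides of an intron in the knt kanamycin-resistance gene on pET-22b(+) were all randomised and the library put into E. coli BL21(DE3). Six replicate transformations were grown overnight at 37°C or 30°C on LB agar with or without 25 μg/mL kanamycin, together with 100 μg/mL carbenicillin, 50 μM IPTG and 0.2% rhamnose. Colonies were pooled and amplicon-sequenced on an Illumina HiSeq 2500. Fitness from DiMSum is the error-weighted combination of wild-type-normalised replicate fold changes, kanamycin over none.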

Row | Sequence | self-splicing fitness (ln) (30 °C) | self-splicing fitness (ln) (37 °C)
1 | ACGAAGCAAUAUUACGUCCU | -0.493 ± 0.083 | -0.288 ± 0.11
2 | ACGAAGCAAUAUUACGUCUG | -0.601 ± 0.069 | -0.997 ± 0.092
3 | ACGAAGCAAUAUUACGUGAA | -2.43 ± 0.089 | -1.64 ± 0.13
4 | ACGAAGCAAUAUUACGUGAU | -2.04 ± 0.054 | -0.989 ± 0.072
5 | ACGAAGCAAUAUUACGUGGA | -2.7 ± 0.13 | -2.69 ± 0.18
6 | ACGAAGCAAUAUUACGUGUG | -2.16 ± 0.054 | -0.817 ± 0.063
7 | ACGAAGCAAUAUUACGUUCC | -2.97 ± 0.2 | -1.29 ± 0.16
8 | ACGCAGCAAUAUUACGACCC | -1.66 ± 0.18 | -0.0893 ± 0.28
9 | ACGCAGCAAUAUUACGACUG | -2.72 ± 0.14 | -2.02 ± 0.2
10 | ACGCAGCAAUAUUACGAUUC | -2.28 ± 0.085 | -1.43 ± 0.096
11 | ACGCAGCAAUAUUACGCACA | -0.862 ± 0.11 | -0.0125 ± 0.12
12 | ACGCAGCAAUAUUACGCCGG | -2 ± 0.11 | -0.692 ± 0.15
13 | ACGCAGCAAUAUUACGCGCG | -2.59 ± 0.18 | -2.07 ± 0.2
14 | ACGCAGCAAUAUUACGCGGA | -2.95 ± 0.22 | -1.87 ± 0.17
15 | ACGCAGCAAUAUUACGCGGU | -4.57 ± 0.19 | -2.37 ± 0.12
16 | ACGCAGCAAUAUUACGCGUA | -3.63 ± 0.23 | -2.1 ± 0.15
17 | ACGCAGCAAUAUUACGGACG | -1.31 ± 0.05 | -0.318 ± 0.07
18 | ACGCAGCAAUAUUACGGAUG | -3.06 ± 0.15 | -1.67 ± 0.14
19 | ACGCAGCAAUAUUACGGAUU | -2.19 ± 0.08 | -0.83 ± 0.085
20 | ACGCAGCAAUAUUACGGCCC | -0.00164 ± 0.16 | 0.0347 ± 0.18
21 | ACGCAGCAAUAUUACGGGCA | -1.08 ± 0.081 | -0.293 ± 0.094
22 | ACGCAGCAAUAUUACGGUAG | -3.56 ± 0.17 | -2.94 ± 0.19
23 | ACGCAGCAAUAUUACGGUCU | -0.587 ± 0.049 | 0.0141 ± 0.056
24 | ACGCAGCAAUAUUACGGUUU | -0.937 ± 0.054 | -0.076 ± 0.083

Row | Sequence | self-splicing fitness (ln) (30 °C) | self-splicing fitness (ln) (37 °C)
25 | ACGCAGCAAUAUUACGUCGC | -1.16 ± 0.12 | -2.45 ± 0.22
26 | ACGCAGCAAUAUUACGUGAG | -1.19 ± 0.056 | -0.552 ± 0.07
27 | ACGCAGCAAUAUUACGUGAU | -1.78 ± 0.039 | -0.783 ± 0.055
28 | ACGCAGCAAUAUUACGUGGA | -3.14 ± 0.14 | -2.37 ± 0.14
29 | ACGCAGCAAUAUUACGUGGC | -2.88 ± 0.14 | -2.26 ± 0.17
30 | ACGCAGCAAUAUUACGUUGC | -2.7 ± 0.1 | -2.75 ± 0.16
31 | ACGGAGCAAUAUUACGAAGG | -3.68 ± 0.21 | -2.7 ± 0.27
32 | ACGGAGCAAUAUUACGACAG | -2.34 ± 0.26 | -2.62 ± 0.34
33 | ACGGAGCAAUAUUACGACCA | -3.73 ± 0.4 | -1.08 ± 0.24
34 | ACGGAGCAAUAUUACGACGA | -1.49 ± 0.1 | -0.442 ± 0.13
35 | ACGGAGCAAUAUUACGACGU | -2.27 ± 0.17 | -1.56 ± 0.23
36 | ACGGAGCAAUAUUACGAGAG | -2.06 ± 0.34 | -2.22 ± 0.45
37 | ACGGAGCAAUAUUACGAGUG | – | -2.8 ± 0.38
38 | ACGGAGCAAUAUUACGCAAU | -2.81 ± 0.24 | -3.02 ± 0.43
39 | ACGGAGCAAUAUUACGCCAG | -4.18 ± 0.43 | -1.11 ± 0.39
40 | ACGGAGCAAUAUUACGCGAC | -2.45 ± 0.21 | -2.55 ± 0.41
41 | ACGGAGCAAUAUUACGCUUA | -2.71 ± 0.17 | -1.03 ± 0.11
42 | ACGGAGCAAUAUUACGCUUC | -2.92 ± 0.21 | -2.81 ± 0.23
43 | ACGGAGCAAUAUUACGCUUU | -4.74 ± 0.38 | -1.98 ± 0.17
44 | ACGGAGCAAUAUUACGGAGC | -1.67 ± 0.34 | –
45 | ACGGAGCAAUAUUACGGGAU | -1.84 ± 0.14 | -1.83 ± 0.2
46 | ACGGAGCAAUAUUACGGGGG | – | -1.58 ± 0.29
47 | ACGGAGCAAUAUUACGUCUC | -4.93 ± 0.32 | -1.94 ± 0.15
48 | ACGGAGCAAUAUUACGUUAG | -2.74 ± 0.18 | -2.5 ± 0.33

Source: the supplement of paper PMC7877785
